From the supplement of paper PMC7877785
± gives the uncertainty stated by the source.

Assay: self-splicing fitness, log relative to wild type (ln ratio); higher = more splicing; Tetrahymena group I intron in knt gene, E. coli kanamycin selection, DiMSum; sequences stand for … in CUCUCU…GGAGGGAAAAGUUAUCAGGCAUGCACCUGGUAGCUAGUCUUUAAACCAAUAGAUUGCAUCGGUUUAAAAGGCAAGACCGUCAAAUUGCGGGAAAGGGGUCAACAGCCGUUCAGUACCAAGUCUCAGGGGAAACUUUGAGAUGGCCUUGCAAAGGGUAUGGUAAUAAGCUGACGGACAUGGUCCUAACCACGCAGCCAAGUCCUAAGUCAACAGAUCUUCUGUUGAUAUGGAUGCAGUUCACAGACUAAAUGUCGGUCGGGGAAGAUGUAUUCUUCUCAUAAGAUAUAGUCGGACCUCUCCUUAAUGGGAGCUAGCGGAUGAAGUGAUGCAACACUGGAGCCGCUGGGAACUAAUUUGUAUGCGAAAGUAUAUUGAUUAGUUUUGGAGUACUCGUGGUCG
In short: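 Colonies from six replicate transformations of E. coli BL21(DE3) were pooled and amplicon-sequenced on an Illumina HiSeq 2500. The library placed an intron with all eight P1ex-region nucleotides randomised inside the knt kanamycin-resistance gene on pET-22b(+), and cells grew overnight at 37°C or 30°C on LB agar with or without 25 μg/mL kanamycin (plus 100 μg/mL carbenicillin, 50 μM IPTG, 0.2% rhamnose). Fitness is the DiMSum error-weighted combination of wild-type-normalised replicate fold changes, kanamycin versus none.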

| Sequence | self-splicing fitness (ln) (30 °C) | self-splicing fitness (ln) (37 °C) |
| --- | --- | --- |
| AGGAAGCAAUAUUACGCGCA | -0.555 ± 0.13 | 0.268 ± 0.16 |
| AGGAAGCAAUAUUACGCUAC | -3.48 ± 0.41 | -2.99 ± 0.47 |
| AGGAAGCAAUAUUACGCUCG | -0.643 ± 0.16 | -0.865 ± 0.21 |
| AGGAAGCAAUAUUACGCUGU | -2.29 ± 0.29 | – |
| AGGAAGCAAUAUUACGGACA | -0.516 ± 0.12 | -0.384 ± 0.15 |
| AGGAAGCAAUAUUACGGACC | -0.483 ± 0.27 | 0.238 ± 0.27 |
| AGGAAGCAAUAUUACGGCAA | -1.52 ± 0.096 | -0.574 ± 0.12 |
| AGGAAGCAAUAUUACGGCAU | -1.28 ± 0.13 | -0.506 ± 0.15 |
| AGGAAGCAAUAUUACGGGAG | -2.22 ± 0.19 | -2.95 ± 0.37 |
| AGGAAGCAAUAUUACGGGCC | -3.5 ± 0.42 | -0.18 ± 0.2 |
| AGGAAGCAAUAUUACGGGGC | -3.49 ± 0.26 | -2.49 ± 0.24 |
| AGGAAGCAAUAUUACGGGUG | -2.14 ± 0.091 | -1.98 ± 0.11 |
| AGGAAGCAAUAUUACGGUAG | -3.37 ± 0.36 | -1.6 ± 0.31 |
| AGGAAGCAAUAUUACGUAUC | -3.45 ± 0.22 | -2.88 ± 0.15 |
| AGGAAGCAAUAUUACGUCAC | -3.41 ± 0.2 | -3.65 ± 0.3 |
| AGGAAGCAAUAUUACGUCAG | -2.97 ± 0.25 | -2.41 ± 0.33 |
| AGGAAGCAAUAUUACGUCAU | -3.32 ± 0.16 | -0.295 ± 0.12 |
| AGGAAGCAAUAUUACGUCCA | -0.764 ± 0.14 | -0.0963 ± 0.22 |
| AGGAAGCAAUAUUACGUUGC | -3.23 ± 0.37 | -1.29 ± 0.41 |
| AGGCAGCAAUAUUACGAACA | -1.45 ± 0.11 | -0.167 ± 0.14 |
| AGGCAGCAAUAUUACGAAUC | -2.29 ± 0.29 | -2.07 ± 0.24 |
| AGGCAGCAAUAUUACGAGCA | -1.96 ± 0.12 | -0.225 ± 0.12 |
| AGGCAGCAAUAUUACGAUAC | -2.06 ± 0.27 | -1.42 ± 0.26 |
| AGGCAGCAAUAUUACGAUCC | -0.222 ± 0.051 | -0.211 ± 0.061 |
| AGGCAGCAAUAUUACGCACA | -0.332 ± 0.092 | 0.275 ± 0.11 |

| Sequence | self-splicing fitness (ln) (30 °C) | self-splicing fitness (ln) (37 °C) |
| --- | --- | --- |
| AGGCAGCAAUAUUACGCCCG | -1.26 ± 0.12 | -0.431 ± 0.2 |
| AGGCAGCAAUAUUACGCGGA | -2.08 ± 0.14 | -0.664 ± 0.1 |
| AGGCAGCAAUAUUACGCUAC | -2.44 ± 0.23 | – |
| AGGCAGCAAUAUUACGCUGC | – | -2.5 ± 0.38 |
| AGGCAGCAAUAUUACGCUUC | – | -1.31 ± 0.28 |
| AGGCAGCAAUAUUACGCUUU | -3.17 ± 0.35 | -1.41 ± 0.18 |
| AGGCAGCAAUAUUACGGAAA | -2.91 ± 0.48 | -2.14 ± 0.24 |
| AGGCAGCAAUAUUACGGACG | -0.899 ± 0.067 | -0.218 ± 0.095 |
| AGGCAGCAAUAUUACGGCCG | -1.12 ± 0.13 | -0.985 ± 0.17 |
| AGGCAGCAAUAUUACGGGAG | -4.08 ± 0.22 | -1.53 ± 0.12 |
| AGGCAGCAAUAUUACGGUGC | -3.54 ± 0.16 | -2.89 ± 0.2 |
| AGGCAGCAAUAUUACGUACA | -0.585 ± 0.071 | -0.742 ± 0.093 |
| AGGCAGCAAUAUUACGUACC | -0.0574 ± 0.12 | 0.0331 ± 0.15 |
| AGGCAGCAAUAUUACGUCAA | -1.25 ± 0.098 | -0.465 ± 0.095 |
| AGGCAGCAAUAUUACGUCCG | -1.16 ± 0.12 | -0.519 ± 0.13 |
| AGGCAGCAAUAUUACGUGAC | -3.86 ± 0.21 | -1.84 ± 0.14 |
| AGGCAGCAAUAUUACGUGUC | -3.18 ± 0.15 | -2.58 ± 0.19 |
| AGGCAGCAAUAUUACGUUGU | -2.88 ± 0.15 | -2.52 ± 0.21 |
| AGGCAGCAAUAUUACGUUUG | -3.43 ± 0.18 | -1.66 ± 0.14 |
| AGGGAGCAAUAUUACGACGC | – | -1.54 ± 0.45 |
| AGGGAGCAAUAUUACGAGGA | -3.08 ± 0.33 | – |
| AGGGAGCAAUAUUACGAGUG | -3.39 ± 0.36 | -2.37 ± 0.3 |
| AGGGAGCAAUAUUACGAUAG | -2.56 ± 0.23 | -2.66 ± 0.3 |
| AGGGAGCAAUAUUACGAUCU | -2.71 ± 0.23 | -1.77 ± 0.17 |
| AGGGAGCAAUAUUACGCCCA | – | -0.897 ± 0.34 |

| Sequence | self-splicing fitness (ln) (30 °C) | self-splicing fitness (ln) (37 °C) |
| --- | --- | --- |
| AGGGAGCAAUAUUACGCUAU | -3.63 ± 0.43 | -1.85 ± 0.49 |
| AGGGAGCAAUAUUACGGAUG | -4 ± 0.33 | -2.6 ± 0.31 |
| AGGGAGCAAUAUUACGGGAU | -3.19 ± 0.46 | -1.48 ± 0.28 |
| AGGGAGCAAUAUUACGGGGC | – | -0.893 ± 0.36 |
| AGGGAGCAAUAUUACGGGUU | -3.84 ± 0.25 | -3.17 ± 0.35 |
| AGGGAGCAAUAUUACGGUAG | -4 ± 0.33 | – |
| AGGGAGCAAUAUUACGGUUU | -3.83 ± 0.24 | -2.39 ± 0.26 |
| AGGGAGCAAUAUUACGUAGA | -3.05 ± 0.19 | -2.22 ± 0.48 |
| AGGGAGCAAUAUUACGUGCA | -4.52 ± 0.34 | -2.5 ± 0.24 |
| AGGGAGCAAUAUUACGUGCC | -2.79 ± 0.46 | – |
| AGGGAGCAAUAUUACGUGGA | -1.45 ± 0.14 | -2.81 ± 0.26 |
| AGGUAGCAAUAUUACGAACA | -0.682 ± 0.019 | -0.342 ± 0.036 |
| AGGUAGCAAUAUUACGAACG | -0.798 ± 0.016 | -0.207 ± 0.035 |
| AGGUAGCAAUAUUACGACGC | -0.0643 ± 0.017 | 0.0178 ± 0.035 |
| AGGUAGCAAUAUUACGACGG | -2.04 ± 0.02 | -1.31 ± 0.037 |
| AGGUAGCAAUAUUACGAGGG | -3.972 ± 0.031 | -3.2 ± 0.042 |
| AGGUAGCAAUAUUACGAUCA | -0.205 ± 0.014 | -0.121 ± 0.033 |
| AGGUAGCAAUAUUACGCACU | -1.32 ± 0.017 | -0.862 ± 0.035 |
| AGGUAGCAAUAUUACGCAGG | -3.433 ± 0.022 | -1.88 ± 0.035 |
| AGGUAGCAAUAUUACGCCAU | -1.89 ± 0.021 | -0.939 ± 0.036 |
| AGGUAGCAAUAUUACGGAAG | -3.612 ± 0.031 | -2.5 ± 0.04 |
| AGGUAGCAAUAUUACGGCUA | -1.66 ± 0.022 | -1.14 ± 0.037 |
| AGGUAGCAAUAUUACGGUCU | -0.498 ± 0.013 | -0.107 ± 0.033 |
| AGGUAGCAAUAUUACGUAUA | -2.6 ± 0.023 | -1.45 ± 0.036 |
| AGGUAGCAAUAUUACGUCAA | -2.28 ± 0.023 | -1.6 ± 0.036 |

| Sequence | self-splicing fitness (ln) (30 °C) | self-splicing fitness (ln) (37 °C) |
| --- | --- | --- |
| AGGUAGCAAUAUUACGUUUC | -3.528 ± 0.026 | -2.18 ± 0.039 |
| AGUAAGCAAUAUUACGAACU | -2.43 ± 0.19 | -0.813 ± 0.15 |
| AGUAAGCAAUAUUACGAAGC | -3.12 ± 0.27 | -3.5 ± 0.37 |
| AGUAAGCAAUAUUACGAAUG | -1.15 ± 0.28 | – |
| AGUAAGCAAUAUUACGAGUU | -2.53 ± 0.097 | -0.877 ± 0.1 |
| AGUAAGCAAUAUUACGCCCC | 0.393 ± 0.41 | -1.15 ± 0.36 |
| AGUAAGCAAUAUUACGCGAA | -2.57 ± 0.12 | -1.42 ± 0.19 |
| AGUAAGCAAUAUUACGCGCG | -1.05 ± 0.21 | -0.403 ± 0.21 |
| AGUAAGCAAUAUUACGCGGA | -3.49 ± 0.32 | -0.326 ± 0.11 |
| AGUAAGCAAUAUUACGCUCC | -3.21 ± 0.28 | -1.18 ± 0.2 |
| AGUAAGCAAUAUUACGGAGU | -2.22 ± 0.18 | -2.37 ± 0.39 |
| AGUAAGCAAUAUUACGGCAA | -0.915 ± 0.11 | -0.179 ± 0.096 |
| AGUAAGCAAUAUUACGGCGG | -2.43 ± 0.16 | -1.66 ± 0.19 |
| AGUAAGCAAUAUUACGGCUG | -0.953 ± 0.11 | -0.941 ± 0.12 |
| AGUAAGCAAUAUUACGGGCG | -0.68 ± 0.08 | 0.152 ± 0.12 |
| AGUAAGCAAUAUUACGUAGA | -3.23 ± 0.19 | -1.78 ± 0.16 |
| AGUAAGCAAUAUUACGUAGU | -3.22 ± 0.14 | -2.53 ± 0.16 |
| AGUAAGCAAUAUUACGUCUA | -0.96 ± 0.16 | -0.0188 ± 0.15 |
| AGUAAGCAAUAUUACGUGGC | -2.68 ± 0.16 | -2.54 ± 0.22 |
| AGUAAGCAAUAUUACGUGUU | -3.49 ± 0.13 | -1.99 ± 0.18 |
| AGUAAGCAAUAUUACGUUAU | -3.25 ± 0.23 | -2.18 ± 0.18 |
| AGUCAGCAAUAUUACGACCA | -0.2 ± 0.12 | 0.345 ± 0.14 |
| AGUCAGCAAUAUUACGACGG | -0.725 ± 0.067 | -0.096 ± 0.1 |
